In paper PMC5818494, “Specific Recognition of Arginine Methylated Histone Tails by JMJD5 and JMJD7” (Scientific Reports, 2018):
Like-named read-outs stand apart in the source and are kept apart here.

How the values were obtained:
[1] = target: histone H3 peptide pH3K4(me2) N-terminal tail peptide (Homo sapiens) (UniProt P68431); conditions: cited from earlier work
[2] = target: histone H3 peptide (pH3) N-terminal tail peptide (Homo sapiens) (UniProt P68431); test: fluorescence polarization; conditions: cited from earlier work
[3] = target: histone H3 peptide pH3R2me2a N-terminal tail peptide (Homo sapiens) (UniProt P68431); test: fluorescence polarization; conditions: cited from earlier work
calf bulk histone [4] = test: SPR; Biacore; 10 μg/ml calf bulk histone in 50 mM sodium acetate pH 5.0 coated onto a CM5 chip; enzyme injected at different concentrations; room temperature; non-linear binding kinetics, ranges estimated
calf bulk histone [5] = test: as above; remark: listed apart in the source

Sequence of c-JMJD5 catalytic core (Q8N371 183-416): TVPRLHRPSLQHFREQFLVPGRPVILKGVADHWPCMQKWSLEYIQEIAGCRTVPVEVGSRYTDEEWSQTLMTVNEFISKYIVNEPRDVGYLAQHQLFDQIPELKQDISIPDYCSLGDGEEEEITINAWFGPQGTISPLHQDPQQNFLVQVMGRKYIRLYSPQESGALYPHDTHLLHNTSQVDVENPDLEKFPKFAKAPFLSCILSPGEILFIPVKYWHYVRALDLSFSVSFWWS
Sequence of JMJD7 (mouse), JMJD7 protein alone generated from GST-JMJD7 fusion protein (P0C872 whole entry, the tested form may be a part): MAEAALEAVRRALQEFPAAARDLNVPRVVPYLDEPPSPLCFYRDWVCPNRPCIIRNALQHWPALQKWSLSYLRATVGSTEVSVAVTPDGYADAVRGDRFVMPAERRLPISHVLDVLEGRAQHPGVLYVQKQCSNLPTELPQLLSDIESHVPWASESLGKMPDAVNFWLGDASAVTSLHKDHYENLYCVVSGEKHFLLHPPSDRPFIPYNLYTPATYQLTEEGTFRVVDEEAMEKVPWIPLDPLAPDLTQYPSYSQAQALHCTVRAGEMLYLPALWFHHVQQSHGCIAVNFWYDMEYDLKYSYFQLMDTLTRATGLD
Sequence of c-JMJD5 (JMJD5 residues 183–416, lacking the N-terminal domain) (Q8N371 183-416): as the sequence (Q8N371 183-416) above

Kd (calf bulk histone [4]) | Kd (calf bulk histone [5]) | Substance | Kd [1] | Kd [2] | Kd [3]
 |  | c-JMJD5 catalytic core (from UniProt Q8N371) | 4 µM | 7 µM | 0.112 µM
1 to 50 µM | 1 to 10 µM | c-JMJD5 (JMJD5 residues 183–416, lacking the N-terminal domain) (from UniProt Q8N371 183-416) (domain or fragment) |  |  | 
1 to 50 µM | 1 to 10 µM | JMJD7 (mouse), JMJD7 protein alone generated from GST-JMJD7 fusion protein (from UniProt P0C872 1-316) (enzyme) |  |  | 
